Experimental findings from publication PMC5069480, “MPP2 is a postsynaptic MAGUK scaffold protein that links SynCAM1 cell adhesion molecules to core components of the postsynaptic density” (Scientific Reports, 2016) are described below.

This test deals with T1, bacterially produced MPP2 PDZ-SH3-GK (MPP2 PSG module) (mouse).
T1 construct: source: E. coli Rosetta, purified (Ni-NTA, Superdex 75)
T1 sequence (Q9WV34 whole entry, looked up): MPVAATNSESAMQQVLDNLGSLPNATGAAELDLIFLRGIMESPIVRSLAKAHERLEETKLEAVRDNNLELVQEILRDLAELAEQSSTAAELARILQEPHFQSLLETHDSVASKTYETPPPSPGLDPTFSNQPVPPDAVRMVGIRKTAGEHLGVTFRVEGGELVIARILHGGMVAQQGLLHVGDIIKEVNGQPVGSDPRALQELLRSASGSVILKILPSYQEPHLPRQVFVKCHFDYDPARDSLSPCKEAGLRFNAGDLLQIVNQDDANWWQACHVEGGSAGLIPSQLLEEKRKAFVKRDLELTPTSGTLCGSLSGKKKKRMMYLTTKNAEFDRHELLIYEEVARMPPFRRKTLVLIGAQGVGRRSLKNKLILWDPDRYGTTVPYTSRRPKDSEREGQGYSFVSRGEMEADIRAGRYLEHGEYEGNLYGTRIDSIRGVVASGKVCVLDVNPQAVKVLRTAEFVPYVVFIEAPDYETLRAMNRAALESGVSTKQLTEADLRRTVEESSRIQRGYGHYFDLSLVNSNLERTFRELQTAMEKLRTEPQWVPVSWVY
Nature of the test: ITC; ITC200 at 25 °C; 200 mM NaCl, 20 mM Tris-HCl pH 7.5, 1 mM DTT; 350 μM mCherry-tagged peptide titrated into 55 μM MPP2 PSG module in the cell; single-site binding model. The following applies: both partners purified. (ITC needs no label: the signal is the heat of the interaction.)

As for GGGGSGGGGSGGGGSNSEEKKEYFI (domain or fragment) [bacterially produced mCherry-tagged SynCAM1 peptide (C-terminus)], binding was put at a Kd of 3.1 ± 0.239 µM.

The term Kd denotes the concentration at which binding is half-saturated. A low value points to tighter binding.
